{
  "source": "patent US20190177705A1",
  "about": "(UNIVERSITEIT GENT, published 2019)",
  "key": {"[1]": {"biological_target": "Flag-gp130-RTp51 fusion protein (encoded by pMG2-RTp51) (human; HIV1) (UniProt P40189)", "experiment": "cell-based or functional assay"}, "[2]": {"biological_target": "T1, HA-Tyk2(C)-p53(N) fusion protein (encoded by pMet7-HA-Tyk2(C)-p53(N)) (human, UniProt P04637 2-72)", "T1 construct": "range 2-72; Expressed in HEK293-T cells; not shown: HA tag", "experiment": "kinase-substrate sensor assay, rPAPI-luciferase reporter in HEK293-T cells"}},
  "data": [
    {"molecule": "HA-Tyk2(R1027A)-RTp66 fusion protein (encoded by pMet7-HA-Tyk2(R1027A)-RTp66)", "values": [
      {"measurement": "imidazole-dependent induction of the luciferase signal", "setting": "[1]", "value": 36, "unit": "fold"}
    ]},
    {"molecule": "unfused gp130 receptor fragment (encoded by pMG1) (other, human, UniProt P40189 760-918, looked up, Background control, expressed in HEK293-T cells; also called unfused gp130 fragment) STVVHSGYRHQVPSVQVFSRSESTQPLLDSEERPEDLQLVDHVDGGDGILPRQQYFKQNCSQHESSPDISHFERSKQVSSVNEEDFVRLKQQISDHISQSCGSGQMKMFQEVSAADAFGPGTEGQVERFETVGMEAATDEGMPKSYLPQTVRQGGYMPQ", "values": [
      {"measurement": "binding result", "setting": "[2]", "value": "no binding"}
    ]}
  ]
}
